Literature values, collected in patent US20030103959A1, “Methods of providing neuroprotection and/or neurorestoration via the neural activin type IIB receptor” (priority 2001, published 2003).

System: quinolinic acid (QA) rat lesion model of Huntington's Disease
Conditions: Hughes et al. 1999

B1: recombinant human (rh) activin-A: member of the TGF-β superfamily; 28 kDa disulphide-linked homodimer of two βA subunits (protein, UniProt P08476 311-426, looked up)
Inhibin beta A chain: GLECDGKVNICCKKQFFVSFKDIGWNDWIIAPSGYHANYCEGECPSHIAGTSGSSLSFHSTVINHYRMRGHSPFANLKSCCVPTKLRPMSMLYYDDGQNIIKKDIQNMIVEECGCS
neurotrophic effects after administration: potent neurotrophic effects
